# Reference: the RNAGym collection of RNA variant scans (doi:10.1073/pnas.2313332121)
# Variants at the floor of the assay were thinned out.
# B1: TPR 5TU (parent)
# chain: GGAUCUUCUCGAUCUAACAAAAAAGACAAAUCUGCCACAAAGCUUGAGAGCAUCUUCGGAUGCAGAGGCGGCAGCCUUCGGUGGCGCGAUAGCGCCAACGUUCUCAACUAUGACACGCAAAACGCGUGCUCCGUUGAAUGGAGUUUAUCAUG
# Variants of: B1
# Test: polymerase ribozyme fitness, log enrichment relative to wild type (log ratio); higher = more active; in vitro selection for triplet polymerase activity
# How it was run: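 In triplicate, a single round of in vitro selection was run on each mutant library, PCR-built and transcribed, covering one subunit of a heterodimeric triplet polymerase ribozyme. Frozen incubation at −7 °C followed annealing with a biotinylated primer, partner subunit and triplets, and extended constructs were then gel-excised, streptavidin-captured and taken through RT-PCR. Fitness is the logarithm of genotype enrichment over wild-type enrichment, from inverse-variance-weighted replicate averages of Illumina-sequenced inputs and outputs. […] only genotypes with ≥10 input reads and ≥1 read per output were kept.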
row,Variant,polymerase ribozyme fitness (log ratio)
1,GGAUCUUCUCGAUCUAACGAAAAAUACAAAUCUGCCACAAAGCUUGCGAGCAUCUUCGGAUGCAGAGGCGGCAGCCUCCGGUGGCGCGAUAGCGCAAACGUUCUCAACUAUGACACGCAAAACGCGUGCUCCGUUGAAUGGAGUUUAUCAUG [A19G G25U A47C U78C C96A],≤ -4.2
2,GGAUCUUCUCGAUCUAACAAAAAAGACAAAUCUGCCACAAAGCUUGAGAGCAUCGUCCUAUGCAGACGCGGCAGCCUACGGUGGCGCGAUAGCGUCAACGUUCUCAACUAUGGCACGCAAAACGCGUGCUCCGUUGAAUGGAGUUUAUCAUG [U55G G58C G59U G67C U78A C95U A113G],≤ -4.2
3,GGAUCUUCUCGAUCUAACAAAAAAGACAAAUCUGCCACAAAGCUUGAGAGCAUCUACGGAUGCAGAGGCGGCAGCCUUCGGUGGCGCGAUAGCGCAAACGUUUUCAACUAUGACACGCAAAACGCGUGCUCCGUUGAAUGGAGUUUAUCAUG [U56A C96A C103U],0.293
4,GGAGCUUCUCGAUCUAACAAAAAAGACAAAUCUGCCACAAAGCUUGAGAGCAUCUUCGGAUGCAGAGGCGGCAGCCUUCGGUGGCGCGAUAGCACCAACGUUCUCAACUAUGACUCGCAAAACGCGUGCUCCGUUGAAUGGAGUUUAUCAGG [U4G G94A A115U U151G],≤ -4.2
5,GGAUCUUCUCGAGCUAACAAAAAAGACAAAUCUGCCACAAAGCUUGAGAGCAUCUUCCGAUUCAGAGGCGGCAGCCUUCGGAGGCUCGAUAGCGCCAACGUUCUCAACUAUGACACGCAAAACGCGCGCUCCGUUGAAUGGAGUUGAUCAUG [U13G G58C G62U U82A G86U U127C U146G],≤ -4.2
6,GGAUCUUCUCGAUCUAACAAAAAAGACAAAUCUGCCACAAAGCUUGAGAGCAUCUUCGGAUGCAGAGGCGUCACCCUUCGGUGGCGCGAUAGCGCCAACGUUCUCAACUAUGACACGCACAACGCGUGCUCCGUUGAAUGGAGUUUAUCAUG [G71U G74C A120C],≤ -4.2
7,GGAUCUUCUCGAUCUAACAAAAAAGACAAAUCUGCCACAAAGCUUGAGAGCAUCUGCGGAUGCAGAGGCGGCAGCACUCGGUGGCGCGAUAGGGCCAACGUUCUAAACGAUGACACGCAAAACGCGUGCUCCGUUGAAUGGAGUUUAUCAUG [U56G C76A U77C C93G C105A U109G],≤ -4.2
8,GGAUCUUCUCGAUCUAACAAAAAAGACAAAUCUGCCACAAAGCUUGAGAGCAUCUUCGGAUGCAGAGGCGGCAGCCUUCGGUGGCGAGAUAGCGCCAACGUUCUCACCUAUGACACGCAAAACGCGUGCUCCGUUGAAUGGAGUUUAUCAUG [C87A A107C],≤ -4.2
9,GGAUCUUAUCGAUCUACCAAAAAAGCCAAAUCUGCCACACAGCUUGAGAGCAUCUUCGGAUGCAGAGGCGGCAGCCUUCGGUGGCGUGAUAGCGCCAACGUUCUCAACUAUGACACGCAAAACGCGUGCUCCGUUGAAUGGAGGUUAUCAUG [C8A A17C A26C A40C C87U U144G],≤ -4.2
10,GGAUCUUCUCGAUCUAACAAAAAAGACAAAUCUGCCACAAAGCGUGAGAGCAUCUUCGGAUGCAGAGGCGGCAGCCUUCGGUGGCGCGAUAUCGCCAACGUUCUCAACUAUGACACGCAAAACGCGUGCUCCGUUGAAUGGAGUUUAUCAUG [U44G G92U],≤ -4.2
11,GGAUCUUCUCGAUCUAACAAAAAAGACAAAUCUGCCAUAAAGCAUGAGAGCAUCUUCGGAUGCAGAGGCCGCAGCCUUCGGUGGCGCGAUAGCGCCAACGUUCUCAACUAUGACACGCAAAACGCGUGCUCCGGUGAAUGGAGUUUAUCAUG [C38U U44A G70C U134G],≤ -4.2
12,GGAUCGUCUCGAUCUAACAAAAAAGACAAAUCUGCCACAAAGCGUGUGAGCACCUUCGGAUGCCGAGGCGGCAGCCUUCGGUGGCGCGAUAGCGCCAACGUUAUCAACUAUGACACGCAAAACGCGUGCUCCGUUGAAUGGAGUUUAUCAUG [U6G U44G A47U U53C A64C C103A],≤ -4.2
13,GGAUCUUCUCGAUCUAACAAAAAAGACAAAUCUGCCACAAAGCUUGAGAGCAUCUUCGGAUGCAGAGGCGGCAGCAUUCGGUGGCGCGAUAGCGCUAACGUUCUCAACUAUGACACGCAAAACGCGUGCUCCGUUGAAUGGAGUGUAUCAUG [C76A C96U U145G],-0.785
14,GGAUCUUCUCGAUCUAACAAAAAAGACAAAUCUGCCACAAAGCUUGAGAGCAUCUUCGGAUGCAGAGGCGGCAGCCUUCGGUCGGGCGAUAGCGCCAACGUUAUCAACUAUGACACGCAAAACGCGUGCUCCGUUGAAUGGAGUUUAUCAUG [G83C C85G C103A],≤ -4.2
15,GGAUCUUCUCGAUCUAACAAAAGAGACAAAUCUGCCACAAAGCUUGAGAGCGUCUUUGGAUGCAGAGGCGGCAGCCUUCGGUGGCGCGAUAGCGAGAACGUGCUCAGCUAUGACACGCAAAACGCGUGCUCCGUUGAAUGAAGUUUAUCAUG [A23G A52G C57U C95A C96G U102G A107G G141A],≤ -4.2
16,GGAUCUUCUCGAUCUAACAAAAAAGACAAAUCUGCCACAAAGCUUGAGAUCAUCUUCGGAUGCAGAGGCGGCAGCCUUCGGUGGCGCGAUAGUGCCAACGUUCUCAACUAUGACACGCAAAACGCGUGCUCCGUUGAAUGGAGUUUAUCAUG [G50U C93U],-2.05
17,GGAUCUUCUCCAUGUAACAAAAAAGACAAAUCUGCCACAAAGCUUGAGAGCAUCUUCGGAUGCAGAGGCGGCAGCCUUCGGUGGCGCGAUAGUGCCAACGUUCUCAACUAUGACACGCAAAACGAGUGCUCCGUUGAAUGGAGUUUAUCAUG [G11C C14G C93U C125A],≤ -4.2
18,GGAUCUUCUCGAUCUAACAAAAAAGACAAAUCUGCCACAAAGCUUGAGAGCAUCUUCGGAUGCAGACGCGGCAGCCUUCGGUGGCGCCAUAGCGCCAACGUUCUCAACUAUGACAGGCAAAUCGCGUUCUCCGUUGAAUGGAGAUUAUCAUG [G67C G88C C116G A122U G128U U144A],≤ -4.2
19,GGAUCUUCUCGAUCUAACAAAAAAGACAAAUGUGCCACAAAGCUUGCGAGCAUCUUCGGAUGCAGAGGCGGCACCCUUCGGUGGCGCGAUAGCGCCAACGUUCUCAACUAUGACAUGCAAAACGCGUGCUCAGUUGAUUGGAGUUUAUCAUG [C32G A47C G74C C116U C132A A138U],≤ -4.2
